Data: paper PMC5951372

Experiments:
[1] = biological target: murine double minute 2 (MDM2) protein fragment; test: atomic force microscopy; topographic maps of 20 x 20 µm^2 of the MDM2-functionalised photonic crystal surface after incubation with p53 (1.5 uM, 20 min); binding spots 10-20 nm high counted as p53•MDM2 complex; set-up: unit not given here
[2] = biological target: murine double minute 2 (MDM2) protein fragment; test: photonic crystal bound-states-in-the-continuum resonance shift (label-free optical biosensor); MDM2 immobilised on the Si3N4 photonic crystal by APTES and BS3 (1.5 uM in 20 mM HEPES pH 7.4, 4 °C overnight), blocked with 5% non-fat dried milk in PBS; p53 1.5 uM in PBS, 20 min at room temperature, washed with PBS; transmission spectrum at θ = 0°

- surface density of the complex [1]: 0.24
- shift of the resonance wavelength [2]: 2.4 nm
Substance: p53 protein fragment (interacting domain of p53) (domain or fragment)
